Values quoted from earlier work, collected in US12678516B2, “Immunostimulatory toll-like receptor agonist-nanoparticle for cancer immunotherapy” (The Board of Trustees of the Leland Stanford Junior …, priority 2021, dated 2026).

Assays:
[1] = not given; remark: listed apart in the source

Substance	toxicity with more frequent dosing (10 mg/kg monthly vs 15 mg/kg every 3 months, phase II)	sustained plasma levels in patients with the majority of responses (at one month) [µg/mL]	doses at which objective responses were evident (single antibody infusion, doses 0.01 to 15 mg/kg) [mg/kg]	grade Ill/IV enterocolitis, share of patients ([1]; 10 mg/kg)	hepatitis (irAE) ([1]; CTLA-4 blockade, patients)	hypophysitis (irAE) ([1]; CTLA-4 blockade, patients) [%]	leucopenia (irAE) ([1]; CTLA-4 blockade, patients) [%]	pancreatitis (irAE) ([1]; CTLA-4 blockade, patients) [%]	rash/pruritus (irAE) ([1]; CTLA-4 blockade, patients) [%]	uveitis (irAE) ([1]; CTLA-4 blockade, patients) [%]
Tremelimumab: fully humanized CTLA4 antibody	doubled	> 30	≥ 3	–	–	–	–	–	–	–
ipilimumab: fully humanized CTLA4 antibody	–	–	–	~ 15%	5-10%	5	< 2	< 2	> 50	< 2
